Data as given in patent US20210246166A1 (Bayer, published 2021).
Numbered stars: 1 amine (or outer) side, 2 acyl side, 3 side chain; on linkers, the order of the positions; unused ones are H or OH. Bridge positions count the residues as written; N and C are the ends. Square brackets hold non-standard residues; d marks the D form. Primed or numbered codes have the meaning given here. Ends that are not written are not given here. * marks the point of attachment. Tranexamic″ = tranexamic acid, NC[C@H]1CC[C@@H](C(=O)*)CC1; NH(CH2CH2O)5CH2CO = O=C(COCCOCCOCCOCCOCCN[*:1])[*:2]; NH(CH2CH2O)4CH2CO = O=C(COCCOCCOCCOCCN[*:1])[*:2]; Oic = O=C(O)[C@@H]1C[C@@H]2CCCC[C@@H]2N1; Phe(4-Br) = N[C@@H](Cc1ccc(Br)cc1)C(=O)O; Pro(cis-4-F) = O=C(O)[C@@H]1C[C@H](F)CN1; PEG7 = NCCOCCOCCOCCOCCOCCOCCOCCC(=O)O; PEG6 = NCCOCCOCCOCCOCCOCCOCCC(=O)O; Hyp = O=C(O)[C@@H]1C[C@@H](O)CN1; tBuAla = CC(C)(C)C[C@H](N)C(=O)O; PEG4 = NCCOCCOCCOCCOCCC(=O)O; Pen = CC(C)(S)[C@H](N)C(=O)O; Tle = CC(C)(C)[C@H](N)C(=O)O; PEG3 = NCCOCCOCCOCCC(=O)O; Dap = NC[C@H](N)C(=O)O; Sar = CNCC(=O)O

T1: recombinant human MASP1 active protease (amino acids 297-699, C-terminal His Tag) (human, UniProt P48740 297-699)
T1 sequence: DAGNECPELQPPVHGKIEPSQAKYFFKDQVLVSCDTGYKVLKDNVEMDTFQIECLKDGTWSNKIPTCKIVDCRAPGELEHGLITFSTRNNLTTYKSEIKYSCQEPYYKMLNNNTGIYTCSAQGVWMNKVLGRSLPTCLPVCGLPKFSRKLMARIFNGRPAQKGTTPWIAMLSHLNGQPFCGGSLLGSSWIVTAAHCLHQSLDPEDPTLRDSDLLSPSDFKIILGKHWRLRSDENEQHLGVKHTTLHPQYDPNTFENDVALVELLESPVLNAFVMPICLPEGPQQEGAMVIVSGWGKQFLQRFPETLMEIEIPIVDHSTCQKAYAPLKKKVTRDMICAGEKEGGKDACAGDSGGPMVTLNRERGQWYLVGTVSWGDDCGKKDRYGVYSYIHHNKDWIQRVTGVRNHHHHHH


Columns and labels:
[1] = target: recombinant human MASP2 active protease (amino acids 297-686, C-terminal His Tag) (human, UniProt O00187 297-686); assay: cell-based or functional assay
recombinant human MASP2 active protease (amino acids 297-686, C-terminal His Tag), sequence (O00187 other isoform, or with tags, fused parts or gaps limits assumed): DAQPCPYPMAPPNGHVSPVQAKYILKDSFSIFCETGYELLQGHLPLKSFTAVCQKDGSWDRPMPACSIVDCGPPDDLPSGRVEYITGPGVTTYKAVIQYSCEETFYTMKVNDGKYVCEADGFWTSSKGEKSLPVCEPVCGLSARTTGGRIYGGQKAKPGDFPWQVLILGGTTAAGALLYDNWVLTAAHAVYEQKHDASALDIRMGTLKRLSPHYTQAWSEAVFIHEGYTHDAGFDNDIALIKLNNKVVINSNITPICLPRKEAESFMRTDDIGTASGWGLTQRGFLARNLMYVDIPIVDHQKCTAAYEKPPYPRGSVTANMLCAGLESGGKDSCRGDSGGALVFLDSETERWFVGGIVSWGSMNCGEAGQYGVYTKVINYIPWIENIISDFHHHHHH

[2] = target: T1, recombinant human MASP1 active protease …; assay: cell-based or functional assay

Binder | human MASP2 IC50 [1] [nM] | human MASP1 IC50 [2] [nM]
GICSRSLP[Hyp]ICIPD-OH (disulfide 3-11; N-terminus assumed; SMILES CC[C@H](C)[C@H](NC(=O)CN)C(=O)N[C@H]1CSSC[C@@H](C(=O)N[C@H](C(=O)N2CCC[C@H]2C(=O)N[C@@H](CC(=O)O)C(=O)O)[C@@H](C)CC)NC(=O)[C@H]([C@@H](C)CC)NC(=O)[C@@H]2C[C@@H](O)CN2C(=O)[C@@H]2CCCN2C(=O)[C@H](CC(C)C)NC(=O)[C@H](CO)NC(=O)[C@H](CCCNC(=N)N)NC(=O)[C@H](CO)NC1=O) [Example 410: GIC+SRSLP-(Hyp)-IC+IPD-OH] | 2700 | 76
GICSRSLP[Pro(cis-4-F)]ICIPD-OH (disulfide 3-11; N-terminus assumed; SMILES CC[C@H](C)[C@H](NC(=O)CN)C(=O)N[C@H]1CSSC[C@@H](C(=O)N[C@H](C(=O)N2CCC[C@H]2C(=O)N[C@@H](CC(=O)O)C(=O)O)[C@@H](C)CC)NC(=O)[C@H]([C@@H](C)CC)NC(=O)[C@@H]2C[C@H](F)CN2C(=O)[C@@H]2CCCN2C(=O)[C@H](CC(C)C)NC(=O)[C@H](CO)NC(=O)[C@H](CCCNC(=N)N)NC(=O)[C@H](CO)NC1=O) [Example 414: GIC+SRSLP-((cis-Fluoro)P)-IC+IPD-OH] | 4000 | 86
[Sar]ICSR[Dap]LPPICIPD-OH (disulfide 3-11; N-terminus assumed; SMILES CC[C@H](C)[C@H](NC(=O)CNC)C(=O)N[C@H]1CSSC[C@@H](C(=O)N[C@H](C(=O)N2CCC[C@H]2C(=O)N[C@@H](CC(=O)O)C(=O)O)[C@@H](C)CC)NC(=O)[C@H]([C@@H](C)CC)NC(=O)[C@@H]2CCCN2C(=O)[C@@H]2CCCN2C(=O)[C@H](CC(C)C)NC(=O)[C@H](CN)NC(=O)[C@H](CCCNC(=N)N)NC(=O)[C@H](CO)NC1=O) [Example 413: ((N-Me)G)-IC+SR-(Dap)-LPPIC+IPD-OH] | 2000 | 78
[Sar]ICKRS[tBuAla]PPI[Pen]IP-NH2 (disulfide 3-11; N-terminus assumed; SMILES CC[C@H](C)[C@H](NC(=O)CNC)C(=O)N[C@H]1CSSC(C)(C)[C@@H](C(=O)N[C@H](C(=O)N2CCC[C@H]2C(N)=O)[C@@H](C)CC)NC(=O)[C@H]([C@@H](C)CC)NC(=O)[C@@H]2CCCN2C(=O)[C@@H]2CCCN2C(=O)[C@H](CC(C)(C)C)NC(=O)[C@H](CO)NC(=O)[C@H](CCCNC(=N)N)NC(=O)[C@H](CCCCN)NC1=O) [Example 412: ((N-Me)G)-IC+KRS-((tBu)A)-PPI-(Pen)+IP-NH2] | 5000 | 77
AICSRSLPPIC[(2S,3S)‑2‑((Amino)methyl)‑3‑methylpentanoic acid]PD-NH2 (disulfide 3-11) [Example 417: AIC+SRSLPPIC+((2S,3S)-2-((Amino)methyl)-3-methylpentanoic acid)-PD-NH2] | 17000 | 89
AICSRS[Tle]PPICIPD-NH2 (disulfide 3-11; N-terminus assumed; SMILES CC[C@H](C)[C@H](NC(=O)[C@H](C)N)C(=O)N[C@H]1CSSC[C@@H](C(=O)N[C@H](C(=O)N2CCC[C@H]2C(=O)N[C@@H](CC(=O)O)C(N)=O)[C@@H](C)CC)NC(=O)[C@H]([C@@H](C)CC)NC(=O)[C@@H]2CCCN2C(=O)[C@@H]2CCCN2C(=O)[C@H](C(C)(C)C)NC(=O)[C@H](CO)NC(=O)[C@H](CCCNC(=N)N)NC(=O)[C@H](CO)NC1=O) [Example 411: AIC+SRS-((tBu)G)-PPI-C+IPD-NH2] | 2500 | 76
GICSRS[Phe(4-Br)]PPICIPD-OH (disulfide 3-11; N-terminus assumed; SMILES CC[C@H](C)[C@H](NC(=O)CN)C(=O)N[C@H]1CSSC[C@@H](C(=O)N[C@H](C(=O)N2CCC[C@H]2C(=O)N[C@@H](CC(=O)O)C(=O)O)[C@@H](C)CC)NC(=O)[C@H]([C@@H](C)CC)NC(=O)[C@@H]2CCCN2C(=O)[C@@H]2CCCN2C(=O)[C@H](Cc2ccc(Br)cc2)NC(=O)[C@H](CO)NC(=O)[C@H](CCCNC(=N)N)NC(=O)[C@H](CO)NC1=O) [Example 416: GIC+SRS-((4-Bromo)F)-PPIC+IPD-OH] | 190 | 87
[Sar]ICSRSLP[Oic]I[Pen]I[5‑Azaspiro(2.4)heptane‑1‑carboxylic acid]-OH (disulfide 3-11) [Example 419: ((N-Me)G)-IC+SRSLP-(Oic)-I-(Pen)+I-((5-Azaspiro[2.4]heptane-1-carboxylic acid)-OH] | 100 | 5.1

More lines, now with the values ahead:

human MASP2 IC50 [1] [nM] | human MASP1 IC50 [2] [nM] | Binder
11 | 6.6 | {Tranexamic″}-ICSRS[tBuAla]PPI[Pen]IP-{NH(CH2CH2O)5CH2CO-NH2} (disulfide 2-10; SMILES CC[C@H](C)[C@@H]1NC(=O)[C@@H]2CCCN2C(=O)[C@@H]2CCCN2C(=O)[C@H](CC(C)(C)C)NC(=O)[C@H](CO)NC(=O)[C@H](CCCNC(=N)N)NC(=O)[C@H](CO)NC(=O)[C@@H](NC(=O)[C@@H](NC(=O)[C@H]2CC[C@@H](CN)CC2)[C@@H](C)CC)CSSC(C)(C)[C@@H](C(=O)N[C@H](C(=O)N2CCC[C@H]2C(=O)NCCOCCOCCOCCOCCOCC(N)=O)[C@@H](C)CC)NC1=O) [Example 424: (Tranexamic)-IC+SRS-((tBu)A)-PPI-(Pen)+IP-(PEG5-CH2CO2H (18 atoms))-NH2]
12 | 8.1 | {Tranexamic″}-ICSRS[tBuAla]PPI[Pen]IP-{NH(CH2CH2O)4CH2CO-NH2} (disulfide 2-10; SMILES CC[C@H](C)[C@@H]1NC(=O)[C@@H]2CCCN2C(=O)[C@@H]2CCCN2C(=O)[C@H](CC(C)(C)C)NC(=O)[C@H](CO)NC(=O)[C@H](CCCNC(=N)N)NC(=O)[C@H](CO)NC(=O)[C@@H](NC(=O)[C@@H](NC(=O)[C@H]2CC[C@@H](CN)CC2)[C@@H](C)CC)CSSC(C)(C)[C@@H](C(=O)N[C@H](C(=O)N2CCC[C@H]2C(=O)NCCOCCOCCOCCOCC(N)=O)[C@@H](C)CC)NC1=O) [Example 422: (Tranexamic)-IC+SRS-((tBu)A)-PPI-(Pen)+IP-(PEG4-CH2CO2H (15 atoms))-NH2]
12 | 5.7 | {Tranexamic″}-ICSRS[tBuAla]PPI[Pen]IP-{PEG4-NH2} (disulfide 2-10; SMILES CC[C@H](C)[C@@H]1NC(=O)[C@@H]2CCCN2C(=O)[C@@H]2CCCN2C(=O)[C@H](CC(C)(C)C)NC(=O)[C@H](CO)NC(=O)[C@H](CCCNC(=N)N)NC(=O)[C@H](CO)NC(=O)[C@@H](NC(=O)[C@@H](NC(=O)[C@H]2CC[C@@H](CN)CC2)[C@@H](C)CC)CSSC(C)(C)[C@@H](C(=O)N[C@H](C(=O)N2CCC[C@H]2C(=O)NCCOCCOCCOCCOCCC(N)=O)[C@@H](C)CC)NC1=O) [Example 423: (Tranexamic)-IC+SRS-((tBu)A)-PPI-(Pen)+IP-(PEG3(16 atoms))-NH2]
9.8 | 5 | {Tranexamic″}-ICSRS[tBuAla]PPI[Pen]IP-{PEG3-NH2} (disulfide 2-10; SMILES CC[C@H](C)[C@@H]1NC(=O)[C@@H]2CCCN2C(=O)[C@@H]2CCCN2C(=O)[C@H](CC(C)(C)C)NC(=O)[C@H](CO)NC(=O)[C@H](CCCNC(=N)N)NC(=O)[C@H](CO)NC(=O)[C@@H](NC(=O)[C@@H](NC(=O)[C@H]2CC[C@@H](CN)CC2)[C@@H](C)CC)CSSC(C)(C)[C@@H](C(=O)N[C@H](C(=O)N2CCC[C@H]2C(=O)NCCOCCOCCOCCC(N)=O)[C@@H](C)CC)NC1=O) [Example 421: (Tranexamic)-IC+SRS-((tBu)A)-PPI-(Pen)+IP-(PEG2(13 atoms))-NH2]
13 | 7.7 | {Tranexamic″}-ICSRS[tBuAla]PPI[Pen]IP-{PEG6-NH2} (disulfide 2-10; SMILES CC[C@H](C)[C@@H]1NC(=O)[C@@H]2CCCN2C(=O)[C@@H]2CCCN2C(=O)[C@H](CC(C)(C)C)NC(=O)[C@H](CO)NC(=O)[C@H](CCCNC(=N)N)NC(=O)[C@H](CO)NC(=O)[C@@H](NC(=O)[C@@H](NC(=O)[C@H]2CC[C@@H](CN)CC2)[C@@H](C)CC)CSSC(C)(C)[C@@H](C(=O)N[C@H](C(=O)N2CCC[C@H]2C(=O)NCCOCCOCCOCCOCCOCCOCCC(N)=O)[C@@H](C)CC)NC1=O) [Example 425: (Tranexamic)-IC+SRS-((tBu)A)-PPI-(Pen)+IP-(PEG5(22 atoms))-NH2]
130 | 1.8 | AICSRSLP[Oic]I[Pen]IPN-OH (disulfide 3-11; N-terminus assumed; SMILES CC[C@H](C)[C@H](NC(=O)[C@H](C)N)C(=O)N[C@H]1CSSC(C)(C)[C@@H](C(=O)N[C@H](C(=O)N2CCC[C@H]2C(=O)N[C@@H](CC(N)=O)C(=O)O)[C@@H](C)CC)NC(=O)[C@H]([C@@H](C)CC)NC(=O)[C@@H]2C[C@@H]3CCCC[C@@H]3N2C(=O)[C@@H]2CCCN2C(=O)[C@H](CC(C)C)NC(=O)[C@H](CO)NC(=O)[C@H](CCCNC(=N)N)NC(=O)[C@H](CO)NC1=O) [Example 418: AIC+SRSLP-(Oic)-I-(Pen)+IPN-OH]
15 | 9.1 | {Tranexamic″}-ICSRS[tBuAla]PPI[Pen]IP-{PEG7-NH2} (disulfide 2-10; SMILES CC[C@H](C)[C@@H]1NC(=O)[C@@H]2CCCN2C(=O)[C@@H]2CCCN2C(=O)[C@H](CC(C)(C)C)NC(=O)[C@H](CO)NC(=O)[C@H](CCCNC(=N)N)NC(=O)[C@H](CO)NC(=O)[C@@H](NC(=O)[C@@H](NC(=O)[C@H]2CC[C@@H](CN)CC2)[C@@H](C)CC)CSSC(C)(C)[C@@H](C(=O)N[C@H](C(=O)N2CCC[C@H]2C(=O)NCCOCCOCCOCCOCCOCCOCCOCCC(N)=O)[C@@H](C)CC)NC1=O) [Example 426: (Tranexamic)-IC+SRS-((tBu)A)-PPI-(Pen)+IP-(PEG7(25 atoms))-NH2]
